# Data: patent publication US20220016215A1, “GIP RECEPTOR AGONIST PEPTIDE COMPOUNDS AND USES THEREOF” (TAKEDA PHAARMACEUTICAL COMPANY LIMITED, priority 2018, published 2022)
# Starred links: 1 amine or outer side, 2 acyl side, 3 side chain; linkers in the order of their positions; H or OH if unused. Non-standard residues stand in square brackets, D forms with d. Groups on a side chain read outwards from the residue. No end group written: not given here. *: point of attachment. C15 diacid = O=C(O)CCCCCCCCCCCCCC(=O)*; γGlu = O=C(O)[C@H](CCC(=O)[*:2])N[*:1]; Palmitoyl = CCCCCCCCCCCCCCCC(=O)*; acyl = not defined here; Aib = CC(C)(N)C(=O)O
# B1: Compound No. 9 (peptide)
# peptide: FXEGTFISDYXIAXDKIHQQDFVNWLLAQKGKKNDWKHNITQ
# modifications: Aib at 2; X* = 1-amino,1-cyclopentane carboxylic acid at 11; Nle at 14; C-terminal -OH
# Target: T1, human GIPR (Homo sapiens, UniProt P48546)
# T1 construct: expressed in transfected cells
# T1 sequence (P48546 22-466): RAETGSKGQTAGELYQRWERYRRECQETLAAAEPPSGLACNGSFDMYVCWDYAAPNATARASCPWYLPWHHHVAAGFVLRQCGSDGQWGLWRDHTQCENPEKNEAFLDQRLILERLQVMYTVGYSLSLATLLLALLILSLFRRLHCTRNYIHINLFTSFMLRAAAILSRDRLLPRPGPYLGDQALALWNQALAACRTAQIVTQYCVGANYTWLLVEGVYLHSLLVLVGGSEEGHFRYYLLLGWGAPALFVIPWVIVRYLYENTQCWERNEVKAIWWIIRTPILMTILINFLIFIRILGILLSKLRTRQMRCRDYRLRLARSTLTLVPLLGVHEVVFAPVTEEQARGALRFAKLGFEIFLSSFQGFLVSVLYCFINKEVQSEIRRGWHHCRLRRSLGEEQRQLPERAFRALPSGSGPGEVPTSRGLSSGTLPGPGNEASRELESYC
# Test: Agonist activity on human GIPR, CRE-luciferase reporter assay (increase in intracellular cAMP as indicator)
# Format: cell-based
# Details: GLP1R EC50 / GIPR EC50
# Source text: The human GIPR gene having an identical sequence to Genebank Accession No. U39231 is cloned into a pMSRα-neo vector to prepare hGIPR/pMSRα-neo.
# (2) Construction of Reporter Plasmid Expressing Cell
# Luciferase reporter gene with a cAMP-responsive sequence located upstream is transferred to a CHO-K1 cell to construct a CRE-LUC/CHO-K1 cell.
# (4) Transfer of Human GIPR Gene to CRE-LUC/CHO-K1 Cell and Obtaining of Expressing Cell
# The plasmid hGIPR/pMSRα-neo obtained in (1) is transferred to the CRE-LUC/CHO-K1 cell obtained in (2) to obtain a transformant. Subsequently, the cell line inducing the luciferase expression, hGIPR/CRE-LUC/CHO-K1 cell, is selected from the obtained transformant by adding GIP.
# 25 μL each of the hGIPR/CRE-LUC/CHO-K1 cell is inoculated in a 384-well white plate (Corning) in such a way as to provide 5×10^3 cells/well and may be cultured in a HamF12 medium containing 10% fetal bovine serum, 100 U/mL penicillin, and 100 μg/mL streptomycin in a CO2 incubator at 37° C. overnight. 5 μL of a medium containing a test compound is added to the cells and incubated for 4 hours at the indicated concentration in a CO2 incubator at 37° C. Steady-Glo (Promega) is added in amounts of 30 μL and shaken under light shielding. Twenty minutes later, luciferase activity is measured using a plate reader Envision (PerkinElmer). The GIPR agonist activity is calculated with increase in intracellular cAMP concentration as the indicator when the luciferase activity in the presence of 10 nM of GIP was 100% and the luciferase activity in the case of adding DMSO instead of the test compound was 0%.
row,Molecule,Selectivity Ratio (B/A)
1,YAibEGTFISDYSIALDKIHQQ(Lys-(ethylene glycol)2-C15 diacid)FVNWLLAQRPSSGAPPPS-NH2 [Compound 29],">100,000"
2,YAibEGTFISDYSIALDKIHQQ(Lys-(ethylene glycol)2-C15 diacid)FVNWLLAQRG-OH [Compound 24],82783
3,YAibEGTFISDYSIALDKIHQQ(Lys-(ethylene glycol)2-C15 diacid)FVNWLLAQR-NH2 [Compound 28],">100,000"
4,YAibEGTFISDYS(Lys-(ethylene glycol)2-C15 diacid)ALDKIHQQDFVNWLLAQRG-OH [Compound 32],83090
5,YAibEGTFISDYSIALDKIHQQDFVNWLLAQ(Lys-(ethylene glycol)2-C15 diacid)G-OH [Compound 31],83090
6,YAibEGTFISDYSIELEK(Lys-(ethylene glycol)2-C15 diacid)AQRAFVEWLLAQGPSSGAPPPS-NH2 [Compound 23],3364
7,YD-AlaEGTFISDYSIAMD(Lys-(OEG-gGlu)2-Oda)IHQQDFVNWLLAQKGKICNDWKHNIIQ-NH2 [Compound 13],"21,369"
8,CC[C@H](C)[C@H](NC(=O)[C@H](CO)NC(=O)[C@H](Cc1ccc(O)cc1)NC(=O)[C@H](CC(=O)O)NC(=O)[C@H](CO)NC(=O)[C@@H](NC(=O)[C@H](Cc1ccccc1)NC(=O)[C@@H](NC(=O)CNC(=O)[C@H](CCC(=O)O)NC(=O)[C@@H](C)NC(=O)[C@@H](N)Cc1ccc(O)cc1)[C@@H](C)O)[C@@H](C)CC)C(=O)N[C@@H](C)C(=O)N[C@@H](CCSC)C(=O)N[C@@H](CC(=O)O)C(=O)N[C@@H](CCCCN)C(=O)N[C@H](C(=O)N[C@@H](Cc1c[nH]cn1)C(=O)N[C@@H](CCC(N)=O)C(=O)N[C@@H](CCC(N)=O)C(=O)N[C@@H](CC(=O)O)C(=O)N[C@@H](Cc1ccccc1)C(=O)N[C@H](C(=O)N[C@@H](CC(N)=O)C(=O)N[C@@H](Cc1c[nH]c2ccccc12)C(=O)N[C@@H](CC(C)C)C(=O)N[C@@H](CC(C)C)C(=O)N[C@@H](C)C(=O)N[C@@H](CCC(N)=O)C(=O)N[C@@H](CCCCN)C(=O)NCC(=O)N[C@@H](CCCCN)C(=O)N[C@@H](CCCCN)C(=O)N[C@@H](CC(N)=O)C(=O)N[C@@H](CC(=O)O)C(=O)N[C@@H](Cc1c[nH]c2ccccc12)C(=O)N[C@@H](CCCCN)C(=O)N[C@@H](Cc1c[nH]cn1)C(=O)N[C@@H](CC(N)=O)C(=O)N[C@H](C(=O)N[C@H](C(=O)N[C@@H](CCC(N)=O)C(N)=O)[C@@H](C)CC)[C@@H](C)CC)C(C)C)[C@@H](C)CC [Compound 14],">100,000"

# Same assay, conditions: hGIPR/CRE-LUC/CHO-K1 cells, 4 h incubation; read-out: GIPR EC50 nM (A)
row,Molecule,EC50 [nM]
1,CC[C@H](C)[C@H](NC(=O)[C@H](CO)NC(=O)[C@H](Cc1ccc(O)cc1)NC(=O)[C@H](CC(=O)O)NC(=O)[C@H](CO)NC(=O)[C@@H](NC(=O)[C@H](Cc1ccccc1)NC(=O)[C@@H](NC(=O)CNC(=O)[C@H](CCC(=O)O)NC(=O)[C@@H](C)NC(=O)[C@@H](N)Cc1ccc(O)cc1)[C@@H](C)O)[C@@H](C)CC)C(=O)N[C@@H](C)C(=O)N[C@@H](CCSC)C(=O)N[C@@H](CC(=O)O)C(=O)N[C@@H](CCCCN)C(=O)N[C@H](C(=O)N[C@@H](Cc1c[nH]cn1)C(=O)N[C@@H](CCC(N)=O)C(=O)N[C@@H](CCC(N)=O)C(=O)N[C@@H](CC(=O)O)C(=O)N[C@@H](Cc1ccccc1)C(=O)N[C@H](C(=O)N[C@@H](CC(N)=O)C(=O)N[C@@H](Cc1c[nH]c2ccccc12)C(=O)N[C@@H](CC(C)C)C(=O)N[C@@H](CC(C)C)C(=O)N[C@@H](C)C(=O)N[C@@H](CCC(N)=O)C(=O)N[C@@H](CCCCN)C(=O)NCC(=O)N[C@@H](CCCCN)C(=O)N[C@@H](CCCCN)C(=O)N[C@@H](CC(N)=O)C(=O)N[C@@H](CC(=O)O)C(=O)N[C@@H](Cc1c[nH]c2ccccc12)C(=O)N[C@@H](CCCCN)C(=O)N[C@@H](Cc1c[nH]cn1)C(=O)N[C@@H](CC(N)=O)C(=O)N[C@H](C(=O)N[C@H](C(=O)N[C@@H](CCC(N)=O)C(N)=O)[C@@H](C)CC)[C@@H](C)CC)C(C)C)[C@@H](C)CC [Compound 14],0.001

# Target: human GLP-1R (human, UniProt P43220 24-463)
# Test: cell-based or functional assay
# Details: not given
Molecule,GLP1R pEC50,GLP1R EC50 nM (B) [nM]
Y[Aib]EGTFISDYSIALDKK([ethylene glycol-ethylene glycol-C15 diacid])HQQDFVNWLLAQR-NH2 [Compound No. 27],6.02,–
Y[Aib]EGTFISDYSIAMDKK([γGlu-Palmitoyl])HQQDFVNWLLAQKGKKNDWKHNIIQ-OH (not fully specified; also: acyl given as C16DA in synthesis) [Compound No. 5],7,–
"Y[Aib]EGTFTSDYSI[Aib]LDKIAQRAFVQWLIA[Aib]KGKKQEWKHQITQK(acyl)-NH2 (reading uncertain; also: Lys43 acylated, acyl not given here) [Compound No. 16]",–,< 0.02
Y[Aib]EGTFISDYSIALDKK([ethylene glycol-ethylene glycol-C15 diacid])HQQDFVNWLLAQRG-OH [Compound No. 26],< 9,> 1000
Y[dA]EGTFISDYSIAMDKIHQQDFVNWLLAQKGKKNDWKHNIIQ-NH2 [Compound No. 14],6.03,933
"YXEGTFISDYSIXXDKIHQQDFVNWLLAQKGKKNDWKHNITQ (3,5-diBr-Tyr at 1; Aib at 2; Aib at 13; Nle at 14; C-terminal -OH) [Compound No. 8]",6.9,118
B1,< 6,> 1000

# Target: T2, human GIPR (human, UniProt P48546 22-466)
# T2 sequence (looked up): T1 sequence (P48546 22-466)
# Test: cell-based or functional assay
# Details: not given
Molecule,GIPR EC50 nM (A) [nM],GIPR pEC50,"Selectivity Ratio (B/A), GLP1R EC50 over GIPR EC50"
Y[Aib]EGTFISDYSIALDKK([ethylene glycol-ethylene glycol-C15 diacid])HQQDFVNWLLAQR-NH2 [Compound No. 27],0.001,–,–
Y[Aib]EGTFISDYSIAMDKK([γGlu-Palmitoyl])HQQDFVNWLLAQKGKKNDWKHNIIQ-OH (not fully specified; also: acyl given as C16DA in synthesis) [Compound No. 5],0.001,11.9,93300
"Y[Aib]EGTFTSDYSI[Aib]LDKIAQRAFVQWLIA[Aib]KGKKQEWKHQITQK(acyl)-NH2 (reading uncertain; also: Lys43 acylated, acyl not given here) [Compound No. 16]",0.001,12,–
Y[Aib]EGTFISDYSIALDKK([ethylene glycol-ethylene glycol-C15 diacid])HQQDFVNWLLAQRG-OH [Compound No. 26],0.001,–,–
Y[dA]EGTFISDYSIAMDKIHQQDFVNWLLAQKGKKNDWKHNIIQ-NH2 [Compound No. 14],0.001,12.3,–
"YXEGTFISDYSIXXDKIHQQDFVNWLLAQKGKKNDWKHNITQ (3,5-diBr-Tyr at 1; Aib at 2; Aib at 13; Nle at 14; C-terminal -OH) [Compound No. 8]",–,10.7,5600
B1,0.004,11.4,> 100000
